Data from patent publication US20080160035A1 (Regeneron, published 2008).
Substitutions are numbered along the chain they refer to.

T1: hIL-4R (human, UniProt P24394 26-232)
T1 construct: also called human IL-4 receptor; antigen
T1 sequence (looked up): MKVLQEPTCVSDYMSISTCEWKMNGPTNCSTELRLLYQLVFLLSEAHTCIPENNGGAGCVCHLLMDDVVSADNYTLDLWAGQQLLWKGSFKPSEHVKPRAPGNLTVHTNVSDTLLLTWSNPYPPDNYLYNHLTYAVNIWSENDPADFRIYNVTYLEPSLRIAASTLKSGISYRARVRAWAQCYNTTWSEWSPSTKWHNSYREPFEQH

T2: hIL-4R on cells (STAT6-transfected HEK293, TF1, TF1/A12) (human, UniProt P24394 26-825)
T2 sequence (looked up): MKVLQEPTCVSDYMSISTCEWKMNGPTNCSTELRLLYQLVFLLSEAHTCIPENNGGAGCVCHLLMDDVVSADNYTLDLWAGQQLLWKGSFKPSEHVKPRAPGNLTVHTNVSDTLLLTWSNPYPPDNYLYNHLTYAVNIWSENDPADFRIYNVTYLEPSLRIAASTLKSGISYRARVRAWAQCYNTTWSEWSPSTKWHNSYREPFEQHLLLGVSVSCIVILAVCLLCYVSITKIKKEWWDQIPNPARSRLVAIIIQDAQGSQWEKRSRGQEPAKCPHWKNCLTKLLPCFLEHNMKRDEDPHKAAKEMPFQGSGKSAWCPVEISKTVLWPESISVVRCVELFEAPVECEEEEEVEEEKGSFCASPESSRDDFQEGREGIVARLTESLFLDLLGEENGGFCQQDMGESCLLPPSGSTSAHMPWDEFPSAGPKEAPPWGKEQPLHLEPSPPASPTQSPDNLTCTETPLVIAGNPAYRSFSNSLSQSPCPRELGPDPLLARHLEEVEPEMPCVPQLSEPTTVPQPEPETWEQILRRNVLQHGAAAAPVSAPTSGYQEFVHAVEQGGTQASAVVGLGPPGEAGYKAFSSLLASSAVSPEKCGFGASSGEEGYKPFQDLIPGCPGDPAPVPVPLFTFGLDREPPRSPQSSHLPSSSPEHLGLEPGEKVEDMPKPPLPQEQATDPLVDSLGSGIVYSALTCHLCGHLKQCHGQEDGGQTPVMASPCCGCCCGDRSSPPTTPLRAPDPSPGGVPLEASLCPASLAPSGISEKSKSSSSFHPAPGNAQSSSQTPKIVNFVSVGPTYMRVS

T3: mouse IL-4R (mouse, UniProt P16382 26-233, limits assumed)
T3 sequence (looked up): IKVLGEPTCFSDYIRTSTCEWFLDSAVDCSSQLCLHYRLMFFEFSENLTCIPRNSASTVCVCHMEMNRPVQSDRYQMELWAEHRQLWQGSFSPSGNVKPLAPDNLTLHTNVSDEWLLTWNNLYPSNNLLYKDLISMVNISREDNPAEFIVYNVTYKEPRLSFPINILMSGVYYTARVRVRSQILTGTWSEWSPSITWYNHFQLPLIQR

T4: dimeric hIL-4R-hFc (human, UniProt P24394 26-232)
T4 construct: also called hIL-4R-Fc; not shown: human Fc (hFc)
T4 sequence: T1 sequence (looked up)

T5: monomeric hIL-4R (R&D Systems) (human, UniProt P24394 26-231)
T5 construct: Bought (R&D Systems); also called hIL-4R monomer
T5 sequence: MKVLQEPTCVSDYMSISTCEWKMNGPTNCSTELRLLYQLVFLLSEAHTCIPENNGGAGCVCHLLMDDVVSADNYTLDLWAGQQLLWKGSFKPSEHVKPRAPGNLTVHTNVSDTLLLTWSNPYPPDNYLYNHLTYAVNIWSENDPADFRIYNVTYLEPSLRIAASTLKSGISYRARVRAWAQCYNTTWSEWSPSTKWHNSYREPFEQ

B1: VAB 13A1-6 (antibody, V domains shown)
VH: EVQLVESGGGLVQPGRSLRLSCAASGFTFDNYAMHWVRQAPGKGLEWVSGIRWNSGSIGYADSVKGRFTISRDNAKNSLYLQMNSLRAEDTALYYCAKEGGYSGYRPGPFFDYWGQGTLVTVSS
VL: EIVMTQSPATLSVSPGERATLSCRASQSVNYNLAWYQHKPGQAPRLLIYGASTRATGIPARFSGSGSGTEFTLTISSLQSEDFAVYYCQQYNNWPLTFGGGTKVEIK
B2: VAK11D4-1 (antibody, V domains shown)
VH: QVRLVESGGGVVQPGRSLRLSCVASGFTFRSYGMHWVRQAPGRGLEWVAVISYDGSQTFYVDSVKVRFTISRDNSNNTLYLEMNSLRVDDTAVYFCVKEGRSGSWFDPWGQGTLVAVSS
VL: DIHMTQSPSSLSASVGDRVTITCRASQAINNYLAWFQQKPGRTPKSLIFATSSLQSGVPSRFSGSGSGTDFTLTISSLQPEDFATYYCQQYNSHPWTFGQGTKVEIK
notes: Apparently tested with mouse constant region (anti-mouse IgG capture/detection)
B3: VAK9C6-11 (antibody, V domains shown)
VH: QVQLVESGGGVVQPGRSLRLSCAASGFTFSSYGMHWVRQAPGKGLEWVTVISYDGSIKYYVDSVKGRFTISRDNSKNTLFLQMNSLRVEDTAVYYCAKEGRKYGMDVWGQGTTVTVSS
VL: DIQMTQSPSTLSASVGDRVTITCRASQIISSLLVWYQQKPGKAPKLLIYKASSLESGVPSRFSGSGSGTEFTLTISSLQPDDFATYYCQQYHSYMYTFGQGTKLEIK
notes: as for B2
B4: VAK10G6-7 (antibody, V domains shown)
VH: QVQLVESGGGVVQPGRSLRLSCTASGFTFSSFGMHWVRQAPGRGLEWVAVISYDGSKKYYADSVKVRFTISRDNSKNTLYLQMNSLRVDDTAVYFCAKEGRTGNWFDPWGQGTLVAVSS
VL: B2 VL with H3Q, R42K, S65T, K107R
notes: as for B2
B5: VAK12B11-9 (antibody, V domains shown)
VH: QVQLVESGGGVVQPGRSLRLSCAASGFTFSSYAMYWVRQAPGKGLEWVAVISYDGSNKYYTDSVKGRFTVSRDNSKNTLFLQMNSLRAEDTALYYCAKESSSYGLDVWGQGTTVTVSS
VL: B3 VL with T20A, I28S, S31N, L32W, V34A, Y49S, E55K, T85A, H92N, M95S
notes: as for B2
B6: VAK10G12-5 (antibody, V domains shown)
VH: B4 VH with R16G, T23A, F32Y, I51L, K58E, Y59F, I70V, N84S, D89E, V93I
VL: B2 VL with H3Q, Y32F, R42K, G66E
notes: as for B2
B7: VAB 7B9-3 (antibody, V domains shown)
VH: QVQLVQSGAEVKKPGASVKVSCKDSAYTFNRYGISWVRQAPGQGLEWMGWISAYTGNTVYAQKLQGRVTMTTDNSTSTAYMELRSLRSDDTAVYYCARDKSIFGVVRGFDYWGQGTLVTVSS
VL: B1 VL with A9V, V13L, S22P, N30S, Y31S, N32S, H38Q, P40A, A43S, S77N
notes: as for B2

Target: T1, hIL-4R
Experiment: screen of hybridoma conditioned media

Binder | binding result
B1 | binds

Target: T2, hIL-4R on cells (STAT6-transfected …)
Experiment: cell-based or functional assay

Binder | STAT6 Bioassay IC50 (HEK293 STAT6 luciferase, 10 pM hIL-4) | TF1 Bioassay IC50 (proliferation, 50 pM hIL-4) | TF1/A12 Bioassay IC50 (proliferation, 20 pM hIL-4)
B2 | 0.2 nM | 0.2 nM | 
B3 | 0.48 nM | 0.31 nM | 
B4 | 0.11 nM | 0.23 nM | 
B5 | 0.49 nM | 0.57 nM | 
B6 | 0.36 nM | 0.58 nM | 
B7 | 3.4 nM |  | 8.2 nM

Target: T3, mouse IL-4R
Experiment: binding affinity test of Example 2 (method not restated)

Binder | binding result
B2 | no binding
B3 | no binding
B4 | no binding
B5 | no binding
B6 | no binding
B7 | no binding

Target: T4, dimeric hIL-4R-hFc
Experiment: ELISA; antibody titrated against 25 pM hIL-4R-Fc, free receptor caught on hIL-4 plate
Experimental: Concentration of free hIL-4R-Fc (no antibody bound) was determined using a hIL-4R-specific sandwich ELISA. […] After a one-hour incubation at room temperature, the detection plate was washed and plate-bound hIL-4R-hFc was detected using HRP conjugated goat anti-hFc polyclonal antibodies and developed using colorimetric substrates such as BD OptEIA™ (BD Biosciences Pharmingen, San Diego, Calif.). After the reaction was stopped with 1 M phosphoric or sulfuric acid, absorbances at 450 nm were recorded and the data were analyzed using GraphPad™ Prism software.

Binder | IC50
B2 | 35 pM
B3 | 67 pM
B4 | 37 pM
B5 | 99 pM
B6 | 59 pM
B7 | 59 pM

Target: T4, dimeric hIL-4R-hFc
Experiment: SPR; reduction of hIL-4 (50 nM) binding to captured hIL-4R-hFc after antibody; competitor hIL-4
Excerpt: Purified hIL-4R-hFc molecules were captured by goat anti-human IgG polyclonal antibody immobilized on CM-5 to a density of 260 RU, to prepare a receptor-coated surface.

Binder | % Inhibition (BIAcore)
B2 | 95%
B3 | 96%
B4 | 95%
B5 | 96%
B6 | 94%
B7 | 96%

Target: T5, monomeric hIL-4R (R&D Systems)
Experiment: SPR (BIAcore 2000); antibody captured, monomeric hIL-4R injected
Experimental: (§1) Binding affinity (KD) of selected antibodies with respect to hIL-4R was determined using a real-time biosensor surface plasmon resonance assay (BIAcore™ 2000). Briefly, antibody was captured on a goat anti-mouse (GAM) IgG polyclonal antibody surface created through direct chemical coupling of the GAM IgG to a BIAcore™ chip to form a captured antibody surface. […] Binding of antigen to antibody and dissociation of the bound complex, were monitored in real time. Equilibrium dissociation constants (KD) and dissociation rate constants were ascertained by performing kinetic analysis using BIA evaluation software. BIA evaluation software was also used to calculate the half-life of antigen/antibody complex dissociation (T_{1/2}). […] The binding affinity of anti-hIL-4R antibodies to either mouse or monkey (Macaca fascicularis) IL-4R was also tested.

Binder | Kd | T1/2 monomeric
B2 | 50 pM | 8 h
B3 | 2050 pM | 0.467 h
B4 | 230 pM | 2.4 h
B5 | 410 pM | 2 h
B6 | 90 pM | 6 h
B7 | 1010 pM | 0.217 h

Target: T2, hIL-4R on cells (STAT6-transfected …)
Experiment: cell-based or functional assay
Remark: another data set of the same source

Binder | STAT6 Bioassay IC50 (HEK293 STAT6 luciferase, 40 pM hIL-13) | TF1 Bioassay IC50 (proliferation, 150 pM hIL-13)
B2 | 0.14 nM | 0.44 nM
B3 | 0.3 nM | 1 nM
B4 | 70 pM | 0.46 nM
B5 | 0.37 nM | 1.6 nM
B6 | 0.26 nM | 1.9 nM
B7 | 1.1 nM | 

Target: T4, dimeric hIL-4R-hFc
Experiment: SPR (BIAcore 2000); antibody captured, dimeric hIL-4R-hFc injected
Experimental: as §1

Binder | Kd | T1/2 dimeric
B2 | 6 pM | 21 h
B3 | 68 pM | 7 h
B4 | 11 pM | 24 h
B5 | 36 pM | 12 h
B6 | 7 pM | 46 h
B7 | 52 pM | 6.1 h
